# Experimental data reported in article PMC3887213 (2013).
# B1: LRRK2 RocCOR tandem domain (LexA-BD bait, wild type) [human] / itself (parent complex)
# chain: KAVPYNRMKLMIVGNTGSGKTTLLQQLMKTKKSDLGMQSATVGIDVKDWPIQIRDKRKRDLVLNVWDFAGREEFYSTHPHFMTQRALYLAVYDLSKGQAEVDAMKPWLFNIKARASSSPVILVGTHLDVSDEKQRKACMSKITKELLNKRGFPAIRDYHFVNATEESDALAKLRKTIINESLNFKIRDQLVVGQLIPDCYVELEKIILSERKNVPIEFPVIDRKRLLQLVRENQLQLDENELPHAVHFLNESGVLLHFQDPALQLSDLYFVEPKWLCKIMAQILTVKVEGCPKHPKGIISRRDVEKFLSKKRKFPKNYMSQYFKLLEKFQIALPIGEEYLLVPSSLSDHRPVIELPHCENSEIIIRLYEMPYFPMGFWSRLINRLLEISPYMLSGRERALRPNRMYWRQGIYL
# Variants of: B1
# Assay: quantitative yeast two-hybrid (Q-YTH); n = 6; read off a plot
row,Variant,percent of parent [%]
1,KAVPYNRMKLMIVGNAGSGKTTLLQQLMKTKKSDLGMQSATVGIDVKDWPIQIRDKRKRDLVLNVWDFAGREEFYSTHPHFMTQRALYLAVYDLSKGQAEVDAMKPWLFNIKARASSSPVILVGTHLDVSDEKQRKACMSKITKELLNKRGFPAIRDYHFVNATEESDALAKLRKTIINESLNFKIRDQLVVGQLIPDCYVELEKIILSERKNVPIEFPVIDRKRLLQLVRENQLQLDENELPHAVHFLNESGVLLHFQDPALQLSDLYFVEPKWLCKIMAQILTVKVEGCPKHPKGIISRRDVEKFLSKKRKFPKNYMSQYFKLLEKFQIALPIGEEYLLVPSSLSDHRPVIELPHCENSEIIIRLYEMPYFPMGFWSRLINRLLEISPYMLSGRERALRPNRMYWRQGIYL [chain 1 T16A],~93
2,KAVPYNRMKLMIVGNDGSGKTTLLQQLMKTKKSDLGMQSATVGIDVKDWPIQIRDKRKRDLVLNVWDFAGREEFYSTHPHFMTQRALYLAVYDLSKGQAEVDAMKPWLFNIKARASSSPVILVGTHLDVSDEKQRKACMSKITKELLNKRGFPAIRDYHFVNATEESDALAKLRKTIINESLNFKIRDQLVVGQLIPDCYVELEKIILSERKNVPIEFPVIDRKRLLQLVRENQLQLDENELPHAVHFLNESGVLLHFQDPALQLSDLYFVEPKWLCKIMAQILTVKVEGCPKHPKGIISRRDVEKFLSKKRKFPKNYMSQYFKLLEKFQIALPIGEEYLLVPSSLSDHRPVIELPHCENSEIIIRLYEMPYFPMGFWSRLINRLLEISPYMLSGRERALRPNRMYWRQGIYL [chain 1 T16D],~97

# Further lines, results first:
row,percent of parent [%],Variant
1,~110,KAVPYNRMKLMIVGNTGSGKTTLLQQLMKTKKSDLGMQSATVGIDVKDWPIQIRDKRKRDLVLNVWDFAGREEFYSTHPHFMTQRALYLAVYDLSKGQAEVDAMKPWLFNIKARASSSPVILVGTHLDVSDEKQRKACMSKITKELLNKRGFPAIRDYHFVNAAEESDALAKLRKTIINESLNFKIRDQLVVGQLIPDCYVELEKIILSERKNVPIEFPVIDRKRLLQLVRENQLQLDENELPHAVHFLNESGVLLHFQDPALQLSDLYFVEPKWLCKIMAQILTVKVEGCPKHPKGIISRRDVEKFLSKKRKFPKNYMSQYFKLLEKFQIALPIGEEYLLVPSSLSDHRPVIELPHCENSEIIIRLYEMPYFPMGFWSRLINRLLEISPYMLSGRERALRPNRMYWRQGIYL [chain 1 T164A]
2,~98,KAVPYNRMKLMIVGNTGSGKTTLLQQLMKTKKSDLGMQSATVGIDVKDWPIQIRDKRKRDLVLNVWDFAGREEFYSTHPHFMTQRALYLAVYDLSKGQAEVDAMKPWLFNIKARASSSPVILVGTHLDVSDEKQRKACMSKITKELLNKRGFPAIRDYHFVNADEESDALAKLRKTIINESLNFKIRDQLVVGQLIPDCYVELEKIILSERKNVPIEFPVIDRKRLLQLVRENQLQLDENELPHAVHFLNESGVLLHFQDPALQLSDLYFVEPKWLCKIMAQILTVKVEGCPKHPKGIISRRDVEKFLSKKRKFPKNYMSQYFKLLEKFQIALPIGEEYLLVPSSLSDHRPVIELPHCENSEIIIRLYEMPYFPMGFWSRLINRLLEISPYMLSGRERALRPNRMYWRQGIYL [chain 1 T164D]
